Source: paper PMC10902388 (2024)

Molecular target: MBP-16E6(4C4S) (MBP-GGGGS-TEV-16E6, construct used in SPR) (HPV16, UniProt P03126 1-158, C87S | C104S | C118S | C147S)
Assay: SPR

B1: full-length human E6AP (C-terminal TEV-6xHis-Avi) (enzyme)
chain: MEKLHQCYWKSGEPQSDDIEASRMKRAAAKHLIERYYHQLTEGCGNEACTNEFCASCPTFLRMDNNAAAIKALELYKINAKLCDPHPSKKGASSAYLENSKGAPNNSCSEIKMNKKGARIDFKDVTYLTEEKVYEILELCREREDYSPLIRVIGRVFSSAEALVQSFRKVKQHTKEELKSLQAKDEDKDEDEKEKAACSAAAMEEDSEASSSRIGDSSQGDNNLQKLGPDDVSVDIDAIRRVYTRLLSNEKIETAFLNALVYLSPNVECDLTYHNVYSRDPNYLNLFIIVMENRNLHSPEYLEMALPLFCKAMSKLPLAAQGKLIRLWSKYNADQIRRMMETFQQLITYKVISNEFNSRNLVNDDDAIVAASKCLKMVYYANVVGGEVDTNHNEEDDEEPIPESSELTLQELLGEERRNKKGPRVDPLETELGVKTLDCRKPLIPFEEFINEPLNEVLEMDKDYTFFKVETENKFSFMTCPFILNAVTKNLGLYYDNRIRMYSERRITVLYSLVQGQQLNPYLRLKVRRDHIIDDALVRLEMIAMENPADLKKQLYVEFEGEQGVDEGGVSKEFFQLVVEEIFNPDIGMFTYDESTKLFWFNPSSFETEGQFTLIGIVLGLAIYNNCILDVHFPMVVYRKLMGKKGTFRDLGDSHPVLYQSLKDLLEYEGNVEDDMMITFQISQTDLFGNPMMYDLKENGDKIPITNENRKEFVNLYSDYILNKSVEKQFKAFRRGFHMVTNESPLKYLFRPEEIELLICGSRNLDFQALEETTEYDGGYTRDSVLIREFWEIVHSFTDEQKRLFLQFTTGTDRAPVGGLGKLKMIIAKNGPDTERLPTSHTCFNVLLLPEYSSKEKLKERLLKAITYAKGFGML
modifications: biotin on the Avi tag (BirA biotin-protein ligase) in the SPR experiments
koff: 0.0004 s⁻¹
